The text below walks through data of patent publication US20240228579A1 (Innovent, published 2024).

The target in assay [1] is T1, human C1q (human, UniProt P02745 23-245; P02746 28-253; P02747 29-245).
T1 construct: Bought C1q (Complement Technology); also called C1q antigen
The assay is described as follows: BLI (Octet), biotinylated antibody on SA sensor, C1q 40 nM. For orientation: In BLI a coated tip is dipped into the sample, and binding shifts an interference pattern.
Description: (§1) The antibody was diluted to approximately 100 nM, and C1q (Δ099, Complement Technology) was diluted to 40 nM.
(§2) Detection was conducted using Fortebio Octet Red96e, and the sensors were arranged according to the positions of the samples. […] After the experiment was completed, KD values were analyzed using ForteBio Octet analysis software, the coordinate axis data were derived, and Graphpad Prism 8 software was used for plotting.

The target in assay [2] is T1, human C1q. The assay is described as follows: BLI (Octet), biotinylated antibody on SA sensor.
Description: as §1, §2
Assay [3] addresses T2, Human FcRn/FCGRT & B2M heterodimeric protein (human, UniProt P55899 24-297; P61769 21-119).
T2 construct: Bought heterodimer with His and Strep II tags
Kind of assay: SPR (Biacore T200), FcRn captured, antibody in flow, pH 6.0; pH 6.0. For orientation: Surface plasmon resonance follows binding to a sensor surface in real time, without labels.
Excerpt: The specific procedures were as follows: Each of FcγR and FcRn proteins (for information of each Fc receptor, see Table 2 below) containing a histidine tag was captured to the chip surface to which anti-histidine antibodies were coupled, and the binding and dissociation between the proteins on the chip surface and antibodies in the mobile phase were detected to obtain affinity and kinetic constants.
Affinity assay: Each cycle included capture of the receptor, binding of a certain concentration of the antibody carrying the Fc region mutation of the present application, and regeneration of the chip. […] In each cycle, the antibody mutant solution flowed over the chip surface at a flow rate of 30 μL/min, with the binding time of 60 s and the dissociation time of 60 s. […] The obtained data were analyzed using Biacore T200 analysis software (version number 3.1) and using an analysis 1:1 binding or homeostasis analysis model to obtain the corresponding results.

Assay [4] concerns the target T3, Claudin18.2 (cp0007, Genscript) (UniProt P56856-2 1-261, limits assumed).
T3 construct: Bought antigen used in BLI; also called Claudin18.2 antigen; the antigen
T3 sequence (looked up): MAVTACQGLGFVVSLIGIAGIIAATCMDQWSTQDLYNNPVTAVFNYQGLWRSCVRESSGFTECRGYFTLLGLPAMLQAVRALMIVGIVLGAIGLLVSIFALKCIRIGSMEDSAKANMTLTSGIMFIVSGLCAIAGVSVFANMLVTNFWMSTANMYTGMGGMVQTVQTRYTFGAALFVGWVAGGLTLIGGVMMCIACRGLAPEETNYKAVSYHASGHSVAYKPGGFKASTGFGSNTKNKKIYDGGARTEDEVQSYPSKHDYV
Kind of assay: BLI (Octet), antibody on AHC sensor, Claudin18.2 100 nM.
Description: The antibody and Claudin18.2 (cp0007, Genscript) were diluted to 100 nM, respectively.
Detection was conducted using Fortebio Octet Red96e, and the sensors were arranged according to the positions of the samples. […] After the experiment was completed, KD values were analyzed using ForteBio Octet analysis software.

In assay [5] the target is T4, Human FcγRIIIA/CD16A (V176) protein (human, UniProt P08637 17-208).
T4 construct: Bought, his-tagged; not shown: his tag
T4 sequence (P08637 17-208 F176V limits assumed): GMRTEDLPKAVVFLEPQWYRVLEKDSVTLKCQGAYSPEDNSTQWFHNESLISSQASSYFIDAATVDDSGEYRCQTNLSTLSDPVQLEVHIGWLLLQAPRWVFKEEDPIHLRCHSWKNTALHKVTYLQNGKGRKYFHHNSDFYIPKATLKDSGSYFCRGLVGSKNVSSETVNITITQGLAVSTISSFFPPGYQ
Kind of assay: SPR (Biacore T200).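 Further: His-tagged Fc receptors captured on an anti-His antibody chip, Fc-variant antibodies flowed as analyte, 60 s association and 60 s dissociation, fitted by 1:1 or steady-state model.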

Assay [6] addresses T5, Human CD64/FCGR1A protein (human, UniProt P12314 16-288, limits assumed).
T5 construct: Bought, his-tagged; also called FcγRI; not shown: his tag
Kind of assay: SPR (Biacore T200).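 Further: His-tagged Fc receptors captured on an anti-His antibody chip, Fc-variant antibodies flowed as analyte, 60 s association and 60 s dissociation, fitted by 1:1 or steady-state model.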

The target of assay [7] is T6, Human CD32B/FCGR2B protein (human, UniProt P31994 43-217, limits assumed).
T6 construct: Bought, his-tagged; also called FcγRIIb; not shown: his tag
T6 sequence (looked up): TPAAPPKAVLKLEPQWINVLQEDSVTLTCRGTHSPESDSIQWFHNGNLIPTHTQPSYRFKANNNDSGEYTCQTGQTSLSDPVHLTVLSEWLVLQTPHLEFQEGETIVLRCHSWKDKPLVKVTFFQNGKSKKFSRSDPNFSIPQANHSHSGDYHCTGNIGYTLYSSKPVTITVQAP
The assay is described as follows: SPR (Biacore T200).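 Further: His-tagged Fc receptors captured on an anti-His antibody chip, Fc-variant antibodies flowed as analyte, 60 s association and 60 s dissociation, fitted by 1:1 or steady-state model.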

Assay [8] addresses T7, Human FcγRIIIA/CD16A (F176) protein (human, UniProt P08637 17-208).
T7 construct: Bought, his-tagged; not shown: his tag
Kind of assay: SPR (Biacore T200).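 Further: His-tagged Fc receptors captured on an anti-His antibody chip, Fc-variant antibodies flowed as analyte, 60 s association and 60 s dissociation, fitted by 1:1 or steady-state model.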

The target of assay [9] is T8, Human CD32A/FCGR2A protein (167his) (human, UniProt P12318 34-218, limits assumed).
T8 construct: Bought, his-tagged; also called CD32A (H167); CD32A H167; not shown: his tag
T8 sequence (looked up): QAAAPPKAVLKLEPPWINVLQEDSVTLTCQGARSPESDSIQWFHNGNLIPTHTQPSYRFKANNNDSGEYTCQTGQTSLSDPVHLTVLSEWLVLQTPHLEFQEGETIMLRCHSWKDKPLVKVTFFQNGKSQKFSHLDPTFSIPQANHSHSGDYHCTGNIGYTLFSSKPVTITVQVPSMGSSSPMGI
The assay is described as follows: SPR (Biacore T200).

In assay [10] the target is T9, Human CD32A/FCGR2A protein (167Arg) (human, UniProt P12318 34-218, limits assumed).
T9 construct: Bought, his-tagged; also called CD32A (R167); CD32A R167; not shown: his tag
T9 sequence (looked up): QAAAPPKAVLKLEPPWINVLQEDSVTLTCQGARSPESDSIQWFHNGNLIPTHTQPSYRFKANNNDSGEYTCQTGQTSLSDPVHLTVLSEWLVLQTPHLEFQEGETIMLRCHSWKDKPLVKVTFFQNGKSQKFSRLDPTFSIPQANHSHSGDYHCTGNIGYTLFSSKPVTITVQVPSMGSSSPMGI
The assay is described as follows: SPR (Biacore T200).

Assay [11] addresses T10, Human FcγRIIIB/CD16B (NA2) (human, UniProt O75015 17-200, limits assumed).
T10 construct: Bought, his-tagged; not shown: his tag
The assay is described as follows: SPR (Biacore T200).

For assay [12], the target named is T11, Human FcγRIIIB/CD16B (NA1) (human, UniProt O75015 17-200, limits assumed).
T11 construct: Bought, his-tagged; not shown: his tag
T11 sequence (O75015 other isoform, or with tags, fused parts or gaps limits assumed): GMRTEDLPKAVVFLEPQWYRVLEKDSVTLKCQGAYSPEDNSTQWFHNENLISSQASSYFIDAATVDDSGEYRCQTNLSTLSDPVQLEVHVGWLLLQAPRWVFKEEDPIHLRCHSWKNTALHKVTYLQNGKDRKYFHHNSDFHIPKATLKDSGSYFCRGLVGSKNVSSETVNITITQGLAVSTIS
The assay is described as follows: SPR (Biacore T200).

In general, Kd refers to the equilibrium constant for the complex coming apart. Higher therefore signals a looser complex. What is called koff is the rate constant with which the complex falls apart. High values mean fast dissociation, low ones slow dissociation. As a reminder, the kon is the rate constant with which the complex forms. A higher kon goes with faster complex formation.

T1 sequence (P02745 23-245 limits assumed, chain 1 of 3): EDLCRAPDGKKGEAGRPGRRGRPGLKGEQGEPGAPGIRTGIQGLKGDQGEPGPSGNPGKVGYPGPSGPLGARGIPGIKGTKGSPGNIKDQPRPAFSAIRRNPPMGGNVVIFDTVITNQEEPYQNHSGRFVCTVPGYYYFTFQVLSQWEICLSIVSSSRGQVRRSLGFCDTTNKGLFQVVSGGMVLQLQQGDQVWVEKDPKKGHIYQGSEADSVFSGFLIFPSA
T1 sequence (P02746 28-253 limits assumed, chain 2 of 3): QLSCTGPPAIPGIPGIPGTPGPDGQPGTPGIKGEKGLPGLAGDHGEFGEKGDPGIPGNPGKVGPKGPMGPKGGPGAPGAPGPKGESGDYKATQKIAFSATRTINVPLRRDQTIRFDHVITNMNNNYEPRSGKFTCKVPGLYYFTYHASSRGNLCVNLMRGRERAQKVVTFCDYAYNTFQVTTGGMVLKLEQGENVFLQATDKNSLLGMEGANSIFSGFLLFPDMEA
T1 sequence (P02747 29-245 limits assumed, chain 3 of 3): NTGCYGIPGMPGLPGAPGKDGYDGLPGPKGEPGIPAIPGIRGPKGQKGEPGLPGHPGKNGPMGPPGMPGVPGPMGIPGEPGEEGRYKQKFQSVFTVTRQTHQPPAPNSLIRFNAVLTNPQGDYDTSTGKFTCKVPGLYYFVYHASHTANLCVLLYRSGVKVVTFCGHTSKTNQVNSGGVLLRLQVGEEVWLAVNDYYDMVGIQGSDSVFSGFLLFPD
T7 sequence (P08637 17-208 limits assumed): as the sequence (P08637 17-208 F176V limits assumed) above, with V160F counted along it
T2 sequence (P55899 24-297 limits assumed, chain 1 of 2): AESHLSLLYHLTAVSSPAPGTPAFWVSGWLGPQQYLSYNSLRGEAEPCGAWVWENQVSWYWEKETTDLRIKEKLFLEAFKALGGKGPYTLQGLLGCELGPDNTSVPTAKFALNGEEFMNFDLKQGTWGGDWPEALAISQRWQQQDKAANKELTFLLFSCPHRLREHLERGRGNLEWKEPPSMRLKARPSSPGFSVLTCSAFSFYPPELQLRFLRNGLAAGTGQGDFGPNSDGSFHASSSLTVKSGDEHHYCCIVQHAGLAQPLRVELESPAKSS
T2 sequence (P61769 21-119 limits assumed, chain 2 of 2): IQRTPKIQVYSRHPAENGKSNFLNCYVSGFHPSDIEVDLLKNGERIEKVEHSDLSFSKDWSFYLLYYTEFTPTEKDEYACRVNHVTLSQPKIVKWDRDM
T10 sequence (O75015 17-200 N65S limits assumed): as the sequence (O75015 other isoform, or with tags, fused parts or gaps limits assumed) above, with R20S, N49S, D66N, V90I counted along it
T5 sequence (P12314 16-288 limits assumed): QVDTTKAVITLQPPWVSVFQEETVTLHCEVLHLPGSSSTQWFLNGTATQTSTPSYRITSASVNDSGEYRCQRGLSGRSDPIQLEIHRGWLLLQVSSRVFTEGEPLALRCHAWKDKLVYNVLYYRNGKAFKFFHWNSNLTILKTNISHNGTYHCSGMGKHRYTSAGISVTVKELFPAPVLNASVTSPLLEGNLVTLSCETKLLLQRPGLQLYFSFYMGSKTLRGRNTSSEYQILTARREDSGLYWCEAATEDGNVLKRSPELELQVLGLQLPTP

B1: Fcmut-08 (antibody, human IgG1, kappa, L234A L235A)
heavy: QVQLVQSGAEVKKPGSSVKVSCKASGYSFSSYNIHWVRQAPGQGLEWMGYIAPFQGDSRYNQKFKGRVTITADKSTSTAYMELSSLRSEDTAVYYCARLNRGNSLDYWGQGTLVTVSSASTKGPSVFPLAPSSKSTSGGTAALGCLVKDYFPEPVTVSWNSGALTSGVHTFPAVLQSSGLYSLSSVVTVPSSSLGTQTYICNVNHKPSNTKVDKKVEPKSCDKTHTCPPCPAPEAAGGPSVFLFPPKPKDTLMISRTPEVTCVVVDVSHEDPEVKFNWYVDGVEVHNAKTKPREEQYNSTYRVVSVLTVLHQDWLNGKEYKCKVSNKALPIEKTISKAKGQPREPQVYTLPPSREEMTKNQVSLTCLVKGFYPSDIAVEWESNGQPENNYKTTPPVLDSDGSFFLYSKLTVDKSRWQQGNVFSCSVMHEALHNHYTQKSLSLSPGK
light: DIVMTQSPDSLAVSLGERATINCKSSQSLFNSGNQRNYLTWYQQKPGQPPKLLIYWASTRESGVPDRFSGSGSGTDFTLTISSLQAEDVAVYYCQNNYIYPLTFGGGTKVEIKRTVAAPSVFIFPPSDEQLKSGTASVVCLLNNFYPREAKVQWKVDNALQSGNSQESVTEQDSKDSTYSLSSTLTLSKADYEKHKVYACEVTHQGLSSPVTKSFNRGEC
notes: IgG1-mut of Fcmut-01: L234A + L235A + deletion of 329 and 330 (EU index); also called Fcmut-8
For B1, the Response in the assay with human C1q [1] was 0.0004 nm; in assay [4] it was 0.152 nm. For the same molecule, the binding result with human C1q [2] is “no binding (tested: C1q 40 nM)”; in assay [5], “no binding (tested: 400 nM)”; in assay [6], “no binding (tested: 400 nM)”; in assay [7], “no binding (tested: 400 nM)”; in assay [8], “no binding (tested: 400 nM)”; in assay [9], “no binding (tested: 400 nM)”. Besides, the binding result in [10], in assay [11] and in assay [12] was “no binding (tested: 400 nM)” each time. Further, the dissociation constant Kd in assay [3] came to 402 nM; in [4], 2.41 nM. The koff in assay [4] came out at 0.0002 s⁻¹. In assay [4], this molecule had a kon of 82900 M⁻¹ s⁻¹.

B2: Fcmut-07 (antibody, human IgG1, kappa, L234A L235A)
heavy: QVQLVQSGAEVKKPGSSVKVSCKASGYSFSSYNIHWVRQAPGQGLEWMGYIAPFQGDSRYNQKFKGRVTITADKSTSTAYMELSSLRSEDTAVYYCARLNRGNSLDYWGQGTLVTVSSASTKGPSVFPLAPSSKSTSGGTAALGCLVKDYFPEPVTVSWNSGALTSGVHTFPAVLQSSGLYSLSSVVTVPSSSLGTQTYICNVNHKPSNTKVDKKVEPKSCDKTHTCPPCPAPEAAGGPSVFLFPPKPKDTLMISRTPEVTCVVVDVSHEDPEVKFNWYVDGVEVHNAKTKPREEQYNSTYRVVSVLTVLHQDWLNGKEYKCKVSNKALGPIEKTISKAKGQPREPQVYTLPPSREEMTKNQVSLTCLVKGFYPSDIAVEWESNGQPENNYKTTPPVLDSDGSFFLYSKLTVDKSRWQQGNVFSCSVMHEALHNHYTQKSLSLSPGK
light: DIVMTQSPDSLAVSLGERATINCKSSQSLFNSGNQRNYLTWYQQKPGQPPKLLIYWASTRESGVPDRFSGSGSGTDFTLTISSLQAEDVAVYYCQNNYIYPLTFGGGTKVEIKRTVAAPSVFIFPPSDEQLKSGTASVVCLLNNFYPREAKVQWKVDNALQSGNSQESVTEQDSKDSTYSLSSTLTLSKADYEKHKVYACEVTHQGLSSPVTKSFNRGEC
notes: IgG1-mut of Fcmut-01: L234A + L235A + deletion of 329 + G at 330 (EU index)
Turning to B2, the figures for the Response (in the assay with human C1q [1]; in assay [4]) were -0.0134 nm and 0.154 nm, respectively. Also, the Kd in assay [3] came out at 374 nM; in assay [4], 2.47 nM. In [4], this molecule yielded a koff of 0.0002 s⁻¹. Also, in assay [4], the kon stood at 80900 M⁻¹ s⁻¹. Also, the binding result in [5], in [6], in assay [7], in [8], in assay [9] and in assay [10] was “no binding (tested: 400 nM)” each time. Besides, the binding result in [11] and in assay [12] was “no binding (tested: 400 nM)” in each case.
